The target in the assay is monomeric amyloid-β peptide 1–42 (Aβ42) (human, UniProt P05067 672-713). Nature of the assay: ITC.

B1: S100B protein (natural protein)
chain: MSELEKAMVALIDVFHQYSGREGDKHKLKKSELKELINNELSHFLEEIKEQEVVDKVMETLDNDGDGECDFQEFMAFVAMVTTACHEFFEHE
The term Kd denotes the free concentration of one partner at which half of the binding sites on the other are occupied at equilibrium, for simple one-to-one binding. Read a low Kd as tighter binding. In general, stoichiometry N refers to the number of molecules, sites or subunits per partner or assembly. Regarding B1, the affinity, expressed as Kd, was 590 ± 230 nM; the dH is -947 ± 29.5 cal/mol; the “stoichiometry N” value came to 2.37 ± 0.07.

Values taken from paper PMC6025902 (Science Advances, 2018).
